Article PMC9121654 (Biochemical and Biophysical Research Communications, 2022)

Molecular target: the molecule itself
Assay: SEC

B1: GYINVG-ZYG11B485-728 fusion protein (other)
chain: GYINVGAQLGTELFIVRQLLQIVKQKTNQNSVDTTLKFTLSALWNLTDESPTTCRHFIENQGLELFMRVLESFPTESSIQQKVLGLLNNIAEVQELHSELMWKDFIDHISSLLHSVEVEVSYFAAGIIAHLISRGEQAWTLSRSQRNSLLDDLHSAILKWPTPECEMVAYRSFNPFFPLLGCFTTPGVQLWAVWAMQHVCSKNPSRYCSMLIEEGGLQHLYNIKDHEHTDPHVQQIAVAILDSLEKHIVR
stoichiometry N: 2
